Measurements: patent US20160263250A1 (GENERAL HOSPITAL, published 2016)

Key:
Exendin-4X12-VT750 = assay: cell-labeling assay, fluorescence plate reader, MIN6 cells
Exendin-4K12-VT680 = assay: in vivo injection into NOD MIP-GFP mice; intravital imaging and fluorescence histology
Exendin-4 = Exendin-4 (UniProt P26349 48-86); assay: blocking on MIN6 cells: Exendin-4 (0-500 nM), then Exendin-4X12-VT750 (10 nM); competitor Exendin-4X12-VT750

Measured: binding result

B1: GLP-1R naturally expressed on mouse insulinoma-derived MIN6 cells and mouse pancreatic beta cells (receptor)
chain: GPRPQGTTVSLSETVQKWREYRRQCQRFLTEAPLLATGLFCNRTFDDYACWPDGPPGSFVNVSCPWYLPWASSVLQGHVYRFCTAEGLWLHKDNSSLPWRDLSECEESKRGERNFPEEQLLSLYIIYTVGYALSFSALVIASAILVGFRHLHCTRNYIHLNLFASFILRALSVFIKDAALKWMYSTAAQQHQWDGLLSYQDSLGCRLVFLLMQYCVAANYYWLLVEGVYLYTLLAFSVFSEQRIFKLYLSIGWGVPLLFVIPWGIVKYLYEDEGCWTRNSNMNYWLIIRLPILFAIGVNFLIFIRVICIVVSKLKANLMCKTDIKCRLAKSTLTLIPLLGTHEVIFAFVMDEHARGTLRFIKLFTELSFTSFQGLMVAILYCFVNNEVQMEFRKCWERWRLEHLNIQRDCSMKPLKCPTSSVSSGATVGSSVYAATCQSSYS
notes: whole, on cells; The species follows from the cell line and the animals; also called GLP-1R (MIN6); GLP-1 receptors in vivo (mouse)
binds: Exendin-4X12-VT750 | Exendin-4K12-VT680 | Exendin-4
